Entries after “also recorded” stand apart in the source; their conditions may differ. Square brackets hold non-standard residues; d marks the D form. Peptide text beside a SMILES is read from it. * marks the point of attachment. 4‑CH3‑Tyr = 4-CH3-Tyr: 4-methyl-tyrosine, a non-natural residue; 2Benzofuroyl(3-Me,6,7-diOMe) = COc1ccc2c(C)c(C(=O)*)oc2c1OC; Phe(4-Cl) = N[C@@H](Cc1ccc(Cl)cc1)C(=O)O; Hyp = O=C(O)[C@@H]1C[C@@H](O)CN1

The target in one experiment is T1, purified EphA2-LBD (Homo sapiens, UniProt P29317).
T1 construct: made in house
T1 sequence (P29317 28-206 limits assumed): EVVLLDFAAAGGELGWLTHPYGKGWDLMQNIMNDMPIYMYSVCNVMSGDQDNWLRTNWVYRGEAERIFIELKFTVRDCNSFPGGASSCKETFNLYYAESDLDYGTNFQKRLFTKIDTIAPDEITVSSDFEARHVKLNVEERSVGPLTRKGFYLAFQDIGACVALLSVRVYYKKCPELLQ
In words: reverse isothermal titration calorimetry (ITC). It is filed as binding. The following applies: reverse ITC titration with purified EphA2-LBD. In general terms: Isothermal titration calorimetry measures the heat released or taken up as one component is titrated into another.

Experiment [1] deals with T2, EphA2-LBD (6xHis-EphA2 ligand-binding domain) (Homo sapiens, UniProt P29317).
T2 construct: made in house
T2 sequence (P29317 28-206 limits assumed): as above
In words: DELFIA displacement of biotinylated EphA2-binding reference peptide. The following applies: DELFIA dose-response; listed as scrambled version of 135H11.

For a further experiment, the system named is EphA2 in BxPC3 cells. In words: EphA2 receptor degradation, Western blot, BxPC3. It is filed as cell-based, human. The following applies: 1 h; 147B5 50 nM to 200 nM with streptavidin 50 nM (n = 1 to 4); scrambled 200 nM; 135H12 50 and 200 nM monomer concentration; ephrinA1-Fc 22 nM monomer (1 μg/mL); total EphA2, anti-EphA2 blot, relative to DMSO, duplicate. The source says: (Table 1). […] In these cell-based assays, receptor activation and degradation could be simply monitored by detecting the ability of each agent to reduce EphA2 expression levels over time, after exposure of cells to test ligands. […] Negative controls were DMSO-treated cells or cells treated with the (scrambled 147B5)4-streptavidine complex (Figure 3).
For the control scrambled agent, we tested it at its maximal 4:1 molar ratio with streptavidin. For these experiments we treated cells with increasing concentrations of 147B5 (from 50 nM to 200 nM) in the absence or presence of streptavidin (50 nM). […]
Figure 4 Effect of 147B5 and its complexes with streptavidin at various ratios on EphA2 receptor degradation. […] (b) Densitometry analysis based on duplicate measurements of band intensities relative to the bands of DMSO-treated cells. * p ≤ 0.05, as determined by a one-way analysis of variance using Dunnett post-test analysis. […]
Cells were lysed with cell lysis buffer (20 mM Tris, pH 7.4, 120 mM NaCl, 1% Triton X-100, 0.5% sodium deoxycholate, 0.1% SDS, 1% IGEPAL, 5 mM EDTA), supplemented with EDTA-free Protease Inhibitor Cocktail and PhosStop (Sigma Aldrich) for 15 min on ice. […] Subsequently, Clarity Western ECL solution (BIO-RAD) was added to the blots prior to being imaged on a FluorChem (ProteinSimple) and analyzed with AlphaView software.
(In general: A western blot detects proteins with antibodies after separation by electrophoresis.)

A further experiment concerns EphA2. The following applies: cited from earlier work.
The subject of experiment [2] is EphA2 in MDA-MB-231 cells. In words: EphA2 receptor degradation, Western blot, MDA-MB-231. Format: cell-based, human. The following applies: 1 h; 147B5 50 nM to 200 nM with streptavidin 50 nM (n = 1 to 4); scrambled 200 nM; 135H12 50 and 200 nM monomer concentration; ephrinA1-Fc 22 nM monomer (1 μg/mL); total EphA2, anti-EphA2 blot, relative to DMSO, duplicate.
The target in experiment [3] is 6xHis-EphA2 ligand-binding domain. In words: ITC; reverse ITC titration with purified EphA2-LBD.
Chain of 6xHis-EphA2 ligand-binding domain (P29317 whole entry, the tested form may be a part): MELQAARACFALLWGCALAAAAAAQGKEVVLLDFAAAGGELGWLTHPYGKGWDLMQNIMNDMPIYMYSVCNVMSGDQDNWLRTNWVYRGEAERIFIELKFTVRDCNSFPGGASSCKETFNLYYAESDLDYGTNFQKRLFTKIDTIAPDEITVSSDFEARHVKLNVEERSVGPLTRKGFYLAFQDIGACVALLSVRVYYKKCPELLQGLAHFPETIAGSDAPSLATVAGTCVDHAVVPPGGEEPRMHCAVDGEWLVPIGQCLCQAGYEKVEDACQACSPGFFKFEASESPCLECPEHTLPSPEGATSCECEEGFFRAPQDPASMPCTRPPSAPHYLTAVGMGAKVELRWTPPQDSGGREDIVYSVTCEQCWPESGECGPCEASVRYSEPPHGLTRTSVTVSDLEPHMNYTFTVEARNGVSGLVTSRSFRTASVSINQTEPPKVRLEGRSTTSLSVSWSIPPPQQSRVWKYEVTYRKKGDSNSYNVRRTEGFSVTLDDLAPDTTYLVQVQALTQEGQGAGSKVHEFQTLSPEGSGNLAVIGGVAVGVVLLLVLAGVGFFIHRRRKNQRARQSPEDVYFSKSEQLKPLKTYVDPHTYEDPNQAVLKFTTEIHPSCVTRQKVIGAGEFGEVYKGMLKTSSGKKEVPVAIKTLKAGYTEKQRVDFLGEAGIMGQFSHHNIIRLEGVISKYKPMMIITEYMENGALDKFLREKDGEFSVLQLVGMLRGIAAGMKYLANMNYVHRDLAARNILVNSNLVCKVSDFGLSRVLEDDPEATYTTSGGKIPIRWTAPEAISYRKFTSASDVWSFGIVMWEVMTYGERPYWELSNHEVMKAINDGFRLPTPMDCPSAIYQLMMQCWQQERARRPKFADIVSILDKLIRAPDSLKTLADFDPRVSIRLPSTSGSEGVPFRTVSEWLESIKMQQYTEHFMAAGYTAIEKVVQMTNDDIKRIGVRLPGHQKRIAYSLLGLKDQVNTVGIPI
Experiment [4] shares this target. As to the kind of experiment: DELFIA displacement assay; earlier-generation biotinylated EphA2-binding reference peptide captured on streptavidin-coated 96-well plates; 6xHis-EphA2-LBD and Europium-conjugated anti-6xHis antibody added together with the test agent at various doses; residual fluorescence read after washing.

Consider “(3-CH3,6,7-OCH3,Benzofuranoic acid)DP(4-CH3-Tyr)A(Hyp)LRG(4-Cl-Phe)PVA-GK(Biotin LC)-CONH2 [Scrambled-147B5, scrambled 135H11-biotinylated (control)]”, for which the “Kd (ITC)” value on purified EphA2-LBD (N.B. = no binding detected by ITC) was “N.B. (ITC)”. In addition, the results for the “binding to EphA2-LBD by ITC (in words)” value on purified EphA2-LBD (listed as 147B5 scrambled version) and at purified EphA2-LBD (listed as scrambled version of 147B5) were “no appreciable binding was detected” and “no binding detected”, respectively.

On to `COc1ccc(C[C@H](NC(=O)[C@@H]2CCCN2C(=O)[C@H](CC(=O)O)NC(=O)c2oc3c(OC)c(OC)ccc3c2C)C(=O)N[C@@H](C)C(=O)N2C[C@H](O)C[C@H]2C(=O)N[C@@H](CC(C)C)C(=O)N[C@@H](CCCNC(=N)N)C(=O)NCC(=O)N[C@@H](Cc2ccc(Cl)cc2)C(=O)N2CCC[C@H]2C(=O)N[C@H](C(=O)N[C@@H](C)C(N)=O)C(C)C)cc1` [Scrambled-135H11] ({2Benzofuroyl(3-Me,6,7-diOMe)}-DPY(Me)A[Hyp]LRG[Phe(4-Cl)]PVA-NH2), for which, in experiment [1], the “inhibition in DELFIA (in words)” value is “no inhibition”.

B1: ephrinA1-Fc: dimeric ephrinA1-Fc chimera, positive control (protein)
chain: DRHTVFWNSSNPKFRNEDYTIHVQLNDYVDIICPHYEDHSVADAAMEQYILYLVEHEEYQLCQPQSKDQVRWQCNRPSAKHGPEKLSEKFQRFTPFTLGKEFKEGHSYYYISKPIHQHEDRCLRLKVTVSGKITHSPQAHDNPQEKRLAADDPEVRVLHSIGHS
modifications: left off: Fc, end not stated, kept
notes: dimeric ephrinA1-Fc chimera, positive control
Take B1: the “EphA2 receptor degradation in BxPC3 cells (in words)” value in the experiment on EphA2 in BxPC3 cells is on record as “nearly complete degradation of the EphA2 receptor”. Further, in the experiment with EphA2 (at nanomolar concentrations, ref [5],[28],[29],[30],[31],[34]), the “receptor degradation, agonistic effectiveness in cells (in words)” value is given as “dramatically more effective as an agonist”. Moreover, in the experiment with EphA2 (legend of schematic, no reference given), the “EphA2 dimer formation, activation, internalization, degradation (in words)” value is “can efficiently induce dimer formation and receptor activation, internalization, and degradation”. Moreover, the “EphA2 receptor degradation in MDA-MB-231 cells (in words)” value in experiment [2] is given as “significant degradation of the EphA2 receptor; also recorded: very effective in causing EphA2 degradation”.

B2: 147B5 (135H11-biotinylated) (peptide)
peptide: LAYPDAVPFRPGK
modifications: N-terminal 3-CH3,6,7-OCH3,Benzofuranoic acid; 4-CH3-Tyr at position 3; Hyp (trans 4-hydroxy-L-proline) at position 8; 4-Cl-Phe at position 9; K(Biotin LC) at position 13 (LC: long 6 atom hydrocarbon chain between the biotin and the amide bond); C-terminal amide (-CONH2)
In general, Kd refers to a measure of binding affinity in units of concentration. High values mean weaker binding, low ones tighter binding. For the molecule B2, the Kd in experiment [3] stood at 117 nM.

What is called IC50 is the concentration that inhibits the measured activity by half. The low end stands for higher potency, the high end for lower potency. Turning to {2Benzofuroyl(3-Me,6,7-diOMe)}-DP[4‑CH3‑Tyr]A[Hyp]LRG[Phe(4-Cl)]PVA-NH2 [Scrambled-135H11], the IC50 in experiment [4] is > 10000 nM.

(Values after article PMC8235110, “Effective Tumor Targeting by EphA2-Agonist-Biotin-Streptavidin Conjugates” (Molecules, 2021).)
